pKd: −log10 of the molar value. Where “and” joins values, the source holds several entries; their conditions need not be identical. Identical values can stand only once. Like-named read-outs stand apart in the source and are kept apart here.

Two substances from PMC6262836 can be followed below.

Holding throughout (test): SPR
Background: In SPR one partner is held on a chip, and binding of the other changes the refractive index at the surface.

Experiment [1] addresses Recombinant human VEGFR-1 Fc chimera (human) (UniProt P17948).
Sequence of UniProt P17948 (P17948 27-758, change not shown): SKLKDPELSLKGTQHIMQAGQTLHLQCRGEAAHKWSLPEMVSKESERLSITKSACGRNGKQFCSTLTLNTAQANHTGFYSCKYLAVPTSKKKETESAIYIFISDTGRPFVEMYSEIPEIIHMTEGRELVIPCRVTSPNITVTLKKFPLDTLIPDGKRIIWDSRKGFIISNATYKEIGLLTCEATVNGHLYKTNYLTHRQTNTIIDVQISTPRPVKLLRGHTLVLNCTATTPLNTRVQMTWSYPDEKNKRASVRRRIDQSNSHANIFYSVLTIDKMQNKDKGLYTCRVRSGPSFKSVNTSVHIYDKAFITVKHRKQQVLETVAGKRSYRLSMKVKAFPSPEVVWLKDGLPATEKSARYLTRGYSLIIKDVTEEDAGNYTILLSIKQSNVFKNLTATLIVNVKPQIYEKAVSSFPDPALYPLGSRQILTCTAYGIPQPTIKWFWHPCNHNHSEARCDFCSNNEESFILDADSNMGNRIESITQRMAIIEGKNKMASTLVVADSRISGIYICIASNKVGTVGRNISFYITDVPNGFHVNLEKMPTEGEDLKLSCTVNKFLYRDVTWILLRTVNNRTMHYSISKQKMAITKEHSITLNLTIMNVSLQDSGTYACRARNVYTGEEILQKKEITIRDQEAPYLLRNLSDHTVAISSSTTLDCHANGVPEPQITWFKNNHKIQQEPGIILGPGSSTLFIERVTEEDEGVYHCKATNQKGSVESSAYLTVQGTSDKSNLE
Experiment [2] deals with Recombinant human VEGFR-2 Fc chimera (human) (UniProt P35968).
Sequence of UniProt P35968 (P35968 20-764, change not shown): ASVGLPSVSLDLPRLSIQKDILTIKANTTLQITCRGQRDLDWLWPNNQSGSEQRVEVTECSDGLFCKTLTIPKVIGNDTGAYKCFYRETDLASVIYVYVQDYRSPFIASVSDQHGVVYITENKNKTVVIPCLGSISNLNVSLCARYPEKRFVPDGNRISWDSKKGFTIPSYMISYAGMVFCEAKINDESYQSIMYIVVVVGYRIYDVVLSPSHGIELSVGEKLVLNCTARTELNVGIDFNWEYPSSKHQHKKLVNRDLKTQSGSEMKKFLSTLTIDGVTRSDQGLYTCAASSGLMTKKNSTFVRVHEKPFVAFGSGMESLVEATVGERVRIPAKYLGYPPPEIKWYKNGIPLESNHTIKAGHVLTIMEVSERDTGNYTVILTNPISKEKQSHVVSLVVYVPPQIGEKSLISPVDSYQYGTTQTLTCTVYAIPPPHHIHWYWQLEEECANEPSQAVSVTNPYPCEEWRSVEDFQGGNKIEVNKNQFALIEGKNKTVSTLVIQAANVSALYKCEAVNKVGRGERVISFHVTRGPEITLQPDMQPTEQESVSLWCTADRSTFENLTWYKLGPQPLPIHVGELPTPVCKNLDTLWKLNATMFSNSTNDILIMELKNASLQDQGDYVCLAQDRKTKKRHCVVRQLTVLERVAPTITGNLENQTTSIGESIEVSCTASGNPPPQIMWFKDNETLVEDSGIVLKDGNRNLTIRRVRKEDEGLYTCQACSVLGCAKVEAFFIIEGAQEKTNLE
Experiment [3] shares this target. This is another data set of the same source.
The target in experiment [4] is Recombinant human VEGFR-1 Fc chimera (human) (UniProt P17948). The source holds these as a separate data set.
The target in experiment [5] is Recombinant human VEGFR-2 Fc chimera (human) (UniProt P35968). This is another data set of the same source.
The target in experiment [6] is Recombinant human VEGFR-1 Fc chimera (human) (UniProt P17948). The source holds these as a separate data set.
The target in experiment [7] is Recombinant human VEGFR-2 Fc chimera (human) (UniProt P35968). This is another data set of the same source.
The target in experiment [8] is Recombinant mouse neuropilin-1 (NRP-1 monomer) (mouse) (UniProt P97333).
Sequence of UniProt P97333 (P97333 22-856): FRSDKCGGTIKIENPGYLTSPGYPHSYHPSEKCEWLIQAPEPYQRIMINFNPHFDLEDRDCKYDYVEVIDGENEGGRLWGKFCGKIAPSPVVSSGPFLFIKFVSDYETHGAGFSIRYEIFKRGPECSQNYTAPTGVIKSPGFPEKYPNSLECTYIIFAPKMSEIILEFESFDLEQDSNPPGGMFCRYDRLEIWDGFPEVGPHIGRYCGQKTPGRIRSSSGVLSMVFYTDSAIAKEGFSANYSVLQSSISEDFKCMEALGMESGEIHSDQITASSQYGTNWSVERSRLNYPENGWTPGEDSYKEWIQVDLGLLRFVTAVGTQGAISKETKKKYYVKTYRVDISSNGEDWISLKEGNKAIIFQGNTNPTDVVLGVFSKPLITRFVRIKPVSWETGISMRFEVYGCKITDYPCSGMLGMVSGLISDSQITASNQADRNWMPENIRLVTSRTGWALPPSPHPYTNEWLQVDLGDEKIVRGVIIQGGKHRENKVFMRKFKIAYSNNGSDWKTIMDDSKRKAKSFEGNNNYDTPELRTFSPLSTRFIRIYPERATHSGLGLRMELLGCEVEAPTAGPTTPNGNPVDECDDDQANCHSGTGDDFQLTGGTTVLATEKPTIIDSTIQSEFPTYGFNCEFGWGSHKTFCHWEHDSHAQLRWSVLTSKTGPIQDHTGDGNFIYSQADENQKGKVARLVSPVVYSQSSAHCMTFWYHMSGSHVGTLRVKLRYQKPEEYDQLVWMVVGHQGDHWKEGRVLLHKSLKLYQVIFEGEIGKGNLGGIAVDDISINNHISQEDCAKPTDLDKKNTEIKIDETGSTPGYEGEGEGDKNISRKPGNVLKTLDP
Experiment [9] has the same target. The source holds these as a separate data set.

As to Recombinant human VEGF121 (ligand), the pKd is 8.14 in experiment [1], 7.77 in [2], 8.21 in [4] and 8.26 in [5]. Further, the kon in [3] amounted to 547000 M⁻¹ s⁻¹; in experiment [4] it was 1.43e+06 M⁻¹ s⁻¹; in experiment [5], 5.47e+06 M⁻¹ s⁻¹. In addition, the koff in experiment [4] is 0.0088 s⁻¹.

As for Recombinant human VEGF165 (ligand), the pKd in experiment [6] is 8.43; in experiment [7], 7.74; in [8] it was 7.55; in experiment [4], 9.71; in experiment [5], 8.07; in [9] it was 7.60. The dissociation rate constant (koff) in experiment [4] is 0.000569 s⁻¹ and 0.000592 s⁻¹; in [5], 0.0151 s⁻¹; in experiment [9] it was 0.065 s⁻¹. Besides, the kon in experiment [4] came out at 2.91e+06 M⁻¹ s⁻¹; in experiment [5], 1.76e+06 M⁻¹ s⁻¹; in experiment [9], 2.64e+06 M⁻¹ s⁻¹.

A word on the pKd: it is −log10 of the Kd, conventionally taken in molar units. A word on the kon: it is the second-order rate constant of association. Broadly, the koff is the first-order rate constant of dissociation.
